Reference: patent US20030027246A1, “Immunogenic peptides derived from prostate-specific membrane antigen (PSMA) and uses thereof” (priority 2000, published 2003)

Molecular target: membrane-bound HLA-A0201 molecule on T2 cells (human)
Assay: T2 cell HLA-A0201 stabilisation at 125.0 µM peptide, BB7.2 staining, flow cytometry
Details: remark: other sources report otherwise

## VLAGGFFLL [CLP-328]
  Fluorescence Index (FI): 1.3 FI

## ELAHYDVLL [CLP-330]
  Fluorescence Index (FI): 0.7 FI
